Results from IntAct's records for PubMed 25009770.

B1: Chorionic somatomammotropin hormone 1 (Homo sapiens), P0DML2 (parent)
chain: MAPGSRTSLLLAFALLCLPWLQEAGAVQTVPLSRLFDHAMLQAHRAHQLAIDTYQEFEETYIPKDQKYSFLHDSQTSFCFSDSIPTPSNMEETQQKSNLELLRISLLLIESWLEPVRFLRSMFANNLVYDTSDSDDYHLLKDLEEGIQTLMGRLEDGSRRTGQILKQTYSKFDTNSHNHDALLKNYGLLYCFRKDMDKVETFLRMVQCRSVEGSCGF
partner: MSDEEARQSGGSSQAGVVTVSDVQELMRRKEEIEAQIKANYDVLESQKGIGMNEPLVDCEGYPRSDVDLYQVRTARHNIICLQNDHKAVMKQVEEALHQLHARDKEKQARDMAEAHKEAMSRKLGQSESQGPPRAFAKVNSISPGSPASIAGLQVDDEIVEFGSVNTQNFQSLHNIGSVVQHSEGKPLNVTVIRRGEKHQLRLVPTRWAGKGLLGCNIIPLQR
B2: Heterogeneous nuclear ribonucleoprotein A1 (Homo sapiens), P09651-2 (parent)
chain: MSKSESPKEPEQLRKLFIGGLSFETTDESLRSHFEQWGTLTDCVVMRDPNTKRSRGFGFVTYATVEEVDAAMNARPHKVDGRVVEPKRAVSREDSQRPGAHLTVKKIFVGGIKEDTEEHHLRDYFEQYGKIEVIEIMTDRGSGKKRGFAFVTFDDHDSVDKIVIQKYHTVNGHNCEVRKALSKQEMASASSSQRGRSGSGNFGGGRGGGFGGNDNFGRGGNFSGRGGFGGSRGGGGYGGSGDGYNGFGNDGSNFGGGGSYNDFGNYNNQSSNFGPMKGGNFGGRSSGPYGGGGQYFAKPRNQGGYGGSSSSSSYGSGRRF
partner: B1 partner
B3: Transcription factor E2-alpha (Homo sapiens), P15923-1 (parent)
chain: MNQPQRMAPVGTDKELSDLLDFSMMFPLPVTNGKGRPASLAGAQFGGSGLEDRPSSGSWGSGDQSSSSFDPSRTFSEGTHFTESHSSLSSSTFLGPGLGGKSGERGAYASFGRDAGVGGLTQAGFLSGELALNSPGPLSPSGMKGTSQYYPSYSGSSRRRAADGSLDTQPKKVRKVPPGLPSSVYPPSSGEDYGRDATAYPSAKTPSSTYPAPFYVADGSLHPSAELWSPPGQAGFGPMLGGGSSPLPLPPGSGPVGSSGSSSTFGGLHQHERMGYQLHGAEVNGGLPSASSFSSAPGATYGGVSSHTPPVSGADSLLGSRGTTAGSSGDALGKALASIYSPDHSSNNFSSSPSTPVGSPQGLAGTSQWPRAGAPGALSPSYDGGLHGLQSKIEDHLDEAIHVLRSHAVGTAGDMHTLLPGHGALASGFTGPMSLGGRHAGLVGGSHPEDGLAGSTSLMHNHAALPSQPGTLPDLSRPPDSYSGLGRAGATAAASEIKREEKEDEENTSAADHSEEEKKELKAPRARTSPDEDEDDLLPPEQKAEREKERRVANNARERLRVRDINEAFKELGRMCQLHLNSEKPQTKLLILHQAVSVILNLEQQVRERNLNPKAACLKRREEEKVSGVVGDPQMVLSAPHPGLSEAHNPAGHM
partner: B1 partner

Variants of: B1
Details: with psmd9_human PSMD9, O00233

effect of a mutation on the interaction | Variant
with no effect | F217G

Variants of: B2
Details: with psmd9_human PSMD9, O00233

effect of a mutation on the interaction | Variant
disrupting interaction strength | F320G

Variants of: B2
Details: with psmd9_human PSMD9, O00233
Remark: another data set of the same source

effect of a mutation on the interaction | Variant
decreasing interaction strength | F320G

Variants of: B2
Details: with psmd9_human PSMD9, O00233
Remark: another data set of the same source

effect of a mutation on the interaction | Variant
with no effect | F320G

Variants of: B3
Details: with psmd9_human PSMD9, O00233

effect of a mutation on the interaction | Variant
decreasing interaction strength | M654G
